Measurements reported in US20140161821A1, “TREATMENT WITH ANTI-PCSK9 ANTIBODIES” (PFIZER INC., priority 2011, published 2014).

Assays:
[1] = Example 2 clinical study, single escalating IV doses: pharmacokinetics (NCA); type: in vivo, human
Protocol: The subjects, investigator, and site personnel (except site personnel responsible for drug preparation) were blinded to treatment assignments, as was the CRO designee; while the Sponsor clinical research team was unblinded. The study was conducted in 6 planned cohorts of 8 subjects per cohort in an effort to seek a maximum tolerated dose or MTD (total of approximately 48 subjects). […] Doses were administered following an overnight fast as an intravenous infusion over 60 minutes. […] Infusions will be administered as a single infusion over 60 minutes. […]
Drug was prepared by qualified unblinded site personnel and dispensed in a blinded fashion to the patient and immediate study staff.
In addition, single PK samples were obtained on Days 4, 7, 14, 21, 28 and additional PK follow-up visit (if applicable). One sample was drawn at each time point.

PCSK9 [2] = target: T1, PCSK9 (Homo sapiens, UniProt Q8NBP7); assay: Example 5 clinical study, four weekly IV doses: fasting LDL-C; type: in vivo, human Japanese subjects; conditions: weekly IV 0.25, 0.5, 1.0, 1.5 mg/kg on Days 1, 8, 15, 22; baseline about 155 mg/dL
T1 construct: PCSK9 antagonist antibody that antagonizes circulating PCSK9; endogenous in cells; host or cells: human subjects in clinical trials (in vivo, circulating PCSK9)
Text: This study was a randomized, multi-center, double-blind, placebo control, parallel designed trial with a 28 day screening period, 4 week treatment period and 8 week follow-up period (FIG. 11). […] For each subject, the study consisted of 3 periods: screening, treatment, and follow-up. […] The follow-up period will lasted approximately 8 weeks, from approximately Day 29 to the last visit (Day 78).

PCSK9 [3] = target: T1, PCSK9; assay: Example 3 clinical study, single IV dose on stable atorvastatin: fasting LDL-C; type: in vivo
Text: Subjects who have hypertension and are controlled on stable dosages of anti-hypertensive medications could be included. The study included both genders, with a minimum age limit of 18 and a maximum age limit of 80.

PCSK9 [4] = assay: LDL-C and HDL-C in cynomolgus monkeys after IV dosing; type: in vivo
Text: One (1) mg/kg dosing reached a maximum effect of 71% reduction in LDL-C on day 5, and began to recover immediately thereafter, reaching pre-dose levels by day 14. Three (3) mg/kg dosing reached a maximum effect of 72% reduction in LDL-C by day 7, levels began to recover by day 13, and returned to baseline by day 22. Ten (10) mg/kg dosing maintained the 70% reduction in LDL-C levels until day 21 post-dosing, and animals fully recovered by day 31. […] HDL-C levels were not affected by L1L3 treatment in all dose groups.
These two additional doses again lowered LDL-C and kept LDL-C levels below 50% for 4 weeks. LDL-C levels returned to normal two weeks later.

T1 sequence (Q8NBP7 153-692): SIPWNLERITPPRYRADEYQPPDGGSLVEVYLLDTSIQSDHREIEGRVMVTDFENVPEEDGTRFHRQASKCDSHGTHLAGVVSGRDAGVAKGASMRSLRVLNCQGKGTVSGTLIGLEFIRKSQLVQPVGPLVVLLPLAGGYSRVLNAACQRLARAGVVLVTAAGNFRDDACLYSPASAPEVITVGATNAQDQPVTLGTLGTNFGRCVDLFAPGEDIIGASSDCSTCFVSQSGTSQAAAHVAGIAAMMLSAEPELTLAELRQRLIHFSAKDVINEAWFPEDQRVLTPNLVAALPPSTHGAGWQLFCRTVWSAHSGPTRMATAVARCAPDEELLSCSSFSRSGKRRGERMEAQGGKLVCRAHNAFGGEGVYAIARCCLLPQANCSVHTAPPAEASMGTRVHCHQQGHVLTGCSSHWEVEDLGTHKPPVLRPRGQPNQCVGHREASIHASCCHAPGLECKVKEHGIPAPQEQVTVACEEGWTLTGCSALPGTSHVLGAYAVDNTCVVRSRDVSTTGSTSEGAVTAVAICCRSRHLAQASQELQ
T1 sequence (Q8NBP7 31-152 partner limits assumed): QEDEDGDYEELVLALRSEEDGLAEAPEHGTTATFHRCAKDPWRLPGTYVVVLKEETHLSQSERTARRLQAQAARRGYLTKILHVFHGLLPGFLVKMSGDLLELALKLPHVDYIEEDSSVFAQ

B1: L1L3: humanized (<5% murine residues) monoclonal PCSK9 antagonist antibody that binds to secreted PCSK9; VH SEQ ID NO: 11, VL SEQ ID NO: 12 (antibody, V domains shown)
VH: QVQLVQSGAEVKKPGASVKVSCKASGYTFTSYYMHWVRQAPGQGLEWMGEISPFGGRTNYNEKFKSRVTMTRDTSTSTVYMELSSLRSEDTAVYYCARERPLYASDLWGQGTTVTVSS
VL: DIQMTQSPSSLSASVGDRVTITCRASQGISSALAWYQQKPGKAPKLLIYSASYRYTGVPSRFSGSGSGTDFTFTISSLQPEDIATYYCQQRYSLWRTFGQGTKLEIK
modifications: heavy chain variable region; light chain variable region
- AUC(0-∞) ([1]; single IV 0.3 mg/kg, mean): 34997.88 ng·days/mL
- Cl ([1]; single IV 0.3 mg/kg, mean): 8.70 mL/day/kg
- Cmax ([1]; single IV 0.3 mg/kg, mean): 10.31967 µg/mL
- Half-life ([1]; single IV 0.3 mg/kg, mean): 65.8 h
- Vss ([1]; single IV 0.3 mg/kg, mean): 0.03177 L/kg
- AUC(0-∞) ([1]; single IV 0.3 mg/kg, median): 33748.15 ng·days/mL
- Cl ([1]; single IV 0.3 mg/kg, median): 8.92 mL/day/kg
- Cmax ([1]; single IV 0.3 mg/kg, median): 10.5375 µg/mL
- Half-life ([1]; single IV 0.3 mg/kg, median): 65 h
- Vss ([1]; single IV 0.3 mg/kg, median): 0.03074 L/kg
- AUC(0-∞) ([1]; single IV 1 mg/kg, mean): 156399.94 ng·days/mL
- Cl ([1]; single IV 1 mg/kg, mean): 6.58 mL/day/kg
- Cmax ([1]; single IV 1 mg/kg, mean): 29.25183 µg/mL
- Half-life ([1]; single IV 1 mg/kg, mean): 115 h
- Vss ([1]; single IV 1 mg/kg, mean): 0.04159 L/kg
- AUC(0-∞) ([1]; single IV 1 mg/kg, median): 166736.58 ng·days/mL
- Cl ([1]; single IV 1 mg/kg, median): 6.00 mL/day/kg
- Cmax ([1]; single IV 1 mg/kg, median): 28.2315 µg/mL
- Half-life ([1]; single IV 1 mg/kg, median): 114 h
- Vss ([1]; single IV 1 mg/kg, median): 0.04234 L/kg
- AUC(0-∞) ([1]; single IV 3 mg/kg, mean): 709485.10 ng·days/mL
- Cl ([1]; single IV 3 mg/kg, mean): 4.54 mL/day/kg
- Cmax ([1]; single IV 3 mg/kg, mean): 96.7115 µg/mL
- Half-life ([1]; single IV 3 mg/kg, mean): 210 h
- Vss ([1]; single IV 3 mg/kg, mean): 0.04906 L/kg
- AUC(0-∞) ([1]; single IV 3 mg/kg, median): 728278.54 ng·days/mL
- Cl ([1]; single IV 3 mg/kg, median): 4.12 mL/day/kg
- Cmax ([1]; single IV 3 mg/kg, median): 100.6205 µg/mL
- Half-life ([1]; single IV 3 mg/kg, median): 194 h
- Vss ([1]; single IV 3 mg/kg, median): 0.04894 L/kg
- AUC(0-∞) ([1]; single IV 6 mg/kg, mean): 1446945.71 ng·days/mL
- Cl ([1]; single IV 6 mg/kg, mean): 4.33 mL/day/kg
- Cmax ([1]; single IV 6 mg/kg, mean): 175.85433 µg/mL
- Half-life ([1]; single IV 6 mg/kg, mean): 201 h
- Vss ([1]; single IV 6 mg/kg, mean): 0.06045 L/kg
- AUC(0-∞) ([1]; single IV 6 mg/kg, median): 1289916.44 ng·days/mL
- Cl ([1]; single IV 6 mg/kg, median): 4.65 mL/day/kg
- Cmax ([1]; single IV 6 mg/kg, median): 177.485 µg/mL
- Half-life ([1]; single IV 6 mg/kg, median): 186 h
- Vss ([1]; single IV 6 mg/kg, median): 0.06133 L/kg
- AUC(0-∞) ([1]; single IV 12 mg/kg, mean): 3768691.17 ng·days/mL
- Cl ([1]; single IV 12 mg/kg, mean): 3.28 mL/day/kg
- Cmax ([1]; single IV 12 mg/kg, mean): 353.96017 µg/mL
- Half-life ([1]; single IV 12 mg/kg, mean): 492.7 h
- Vss ([1]; single IV 12 mg/kg, mean): 0.07225 L/kg
- AUC(0-∞) ([1]; single IV 12 mg/kg, median): 3599992.39 ng·days/mL
- Cl ([1]; single IV 12 mg/kg, median): 3.36 mL/day/kg
- Cmax ([1]; single IV 12 mg/kg, median): 357.671 µg/mL
- Half-life ([1]; single IV 12 mg/kg, median): 293.8 h
- Vss ([1]; single IV 12 mg/kg, median): 0.05752 L/kg
- AUC(0-∞) ([1]; single IV 18 mg/kg, mean): 4812012.99 ng·days/mL
- Cl ([1]; single IV 18 mg/kg, mean): 3.85 mL/day/kg
- Cmax ([1]; single IV 18 mg/kg, mean): 532.44917 µg/mL
- Half-life ([1]; single IV 18 mg/kg, mean): 311.3 h
- Vss ([1]; single IV 18 mg/kg, mean): 0.06546 L/kg
- AUC(0-∞) ([1]; single IV 18 mg/kg, median): 4857618.28 ng·days/mL
- Cl ([1]; single IV 18 mg/kg, median): 3.71 mL/day/kg
- Cmax ([1]; single IV 18 mg/kg, median): 560.4635 µg/mL
- Half-life ([1]; single IV 18 mg/kg, median): 282.2 h
- Vss ([1]; single IV 18 mg/kg, median): 0.06083 L/kg
- Fasting LDL-C (PCSK9 [2]): sustained, substantial and durable dose-dependent fasting LDL-C lowering
- mean percent change from baseline of fasting LDL-C (PCSK9 [3]; 0.5 mg/kg L1L3, atorvastatin 40 mg daily, Day 0): 0.0%
- mean percent change from baseline of fasting LDL-C (PCSK9 [3]; 0.5 mg/kg L1L3, atorvastatin 40 mg daily, Day 1): −28.8%
- mean percent change from baseline of fasting LDL-C (PCSK9 [3]; 0.5 mg/kg L1L3, atorvastatin 40 mg daily, Day 2): −48.5%
- mean percent change from baseline of fasting LDL-C (PCSK9 [3]; 0.5 mg/kg L1L3, atorvastatin 40 mg daily, Day 3): −66.7%
- mean percent change from baseline of fasting LDL-C (PCSK9 [3]; 0.5 mg/kg L1L3, atorvastatin 40 mg daily, Day 11): −34.4%
- mean percent change from baseline of fasting LDL-C (PCSK9 [3]; 0.5 mg/kg L1L3, atorvastatin 40 mg daily, Day 18): 9.0%
- mean percent change from baseline of fasting LDL-C (PCSK9 [3]; 0.5 mg/kg L1L3, atorvastatin 40 mg daily, Day 25): 23.3%
- mean percent change from baseline of fasting LDL-C (PCSK9 [3]; 0.5 mg/kg L1L3, atorvastatin 40 mg daily, Day 32): 14.8%
- mean percent change from baseline of fasting LDL-C (PCSK9 [3]; 0.5 mg/kg L1L3, atorvastatin 40 mg daily, Day 39): 21.2%
- mean percent change from baseline of fasting LDL-C (PCSK9 [3]; 0.5 mg/kg L1L3, atorvastatin 40 mg daily, Day 46): 17.0%
- mean percent change from baseline of fasting LDL-C (PCSK9 [3]; 0.5 mg/kg L1L3, atorvastatin 40 mg daily, Day 53): 27.9%
- mean percent change from baseline of fasting LDL-C (PCSK9 [3]; 0.5 mg/kg L1L3, atorvastatin 40 mg daily, Day 60): 30.1%
- Day on which the maximum LDL-C lowering effect was observed (PCSK9 [3]; 0.5 mg/kg L1L3, atorvastatin 40 mg, day following L1L3 administration): 3 days
- mean percent change from baseline of fasting LDL-C (PCSK9 [3]; 4 mg/kg L1L3, atorvastatin 40 mg daily, Day 0): 0.0%
- mean percent change from baseline of fasting LDL-C (PCSK9 [3]; 4 mg/kg L1L3, atorvastatin 40 mg daily, Day 1): −20.9%
- mean percent change from baseline of fasting LDL-C (PCSK9 [3]; 4 mg/kg L1L3, atorvastatin 40 mg daily, Day 2): −38.4%
- mean percent change from baseline of fasting LDL-C (PCSK9 [3]; 4 mg/kg L1L3, atorvastatin 40 mg daily, Day 3): −43.3%
- mean percent change from baseline of fasting LDL-C (PCSK9 [3]; 4 mg/kg L1L3, atorvastatin 40 mg daily, Day 11): −64.6%
- mean percent change from baseline of fasting LDL-C (PCSK9 [3]; 4 mg/kg L1L3, atorvastatin 40 mg daily, Day 18): −73.2%
- mean percent change from baseline of fasting LDL-C (PCSK9 [3]; 4 mg/kg L1L3, atorvastatin 40 mg daily, Day 25): −70.8%
- mean percent change from baseline of fasting LDL-C (PCSK9 [3]; 4 mg/kg L1L3, atorvastatin 40 mg daily, Day 32): −69.9%
- mean percent change from baseline of fasting LDL-C (PCSK9 [3]; 4 mg/kg L1L3, atorvastatin 40 mg daily, Day 39): −45.1%
- mean percent change from baseline of fasting LDL-C (PCSK9 [3]; 4 mg/kg L1L3, atorvastatin 40 mg daily, Day 46): −19.2%
- mean percent change from baseline of fasting LDL-C (PCSK9 [3]; 4 mg/kg L1L3, atorvastatin 40 mg daily, Day 53): −3.6%
- mean percent change from baseline of fasting LDL-C (PCSK9 [3]; 4 mg/kg L1L3, atorvastatin 40 mg daily, Day 60): 7.1%
- Day through which the maximum LDL-C lowering effect was observed (PCSK9 [3]; 4 mg/kg L1L3, atorvastatin 40 mg, day following L1L3 administration): 32 days
- Day by which LDL-C recovered (PCSK9 [4]; single IV 0.1 mg/kg): ≤ 5 days
- LDL-C drop (transient) (PCSK9 [4]; single IV 0.1 mg/kg, day 2): 50%
- Day by which LDL-C reached pre-dose levels (PCSK9 [4]; single IV 1 mg/kg): ≤ 14 days
- LDL-C reduction, maximum effect (PCSK9 [4]; single IV 1 mg/kg, day 5): 71%
- Day by which LDL-C returned to baseline (PCSK9 [4]; single IV 3 mg/kg): ≤ 22 days
- LDL-C reduction, maximum effect (PCSK9 [4]; single IV 3 mg/kg, by day 7): 72%
- Day by which animals fully recovered (LDL-C) (PCSK9 [4]; single IV 10 mg/kg): ≤ 31 days
- LDL-C reduction (PCSK9 [4]; single IV 10 mg/kg, maintained until day 21 post-dosing): 70%
- HDL-C levels (PCSK9 [4]; single IV 0.1, 1, 3, 10 mg/kg, all dose groups): not affected
- Serum HDL-C levels (PCSK9 [4]; two additional IV doses of 3 mg/kg on study days 42 and 56): remained unchanged
- LDL-C levels (PCSK9 [4]; two additional IV doses of 3 mg/kg on study days 42 and 56, for 4 weeks): below 50%
